Source: US20250218531A1 (ABSCI, published 2025)
Substitutions are numbered along the chain they refer to. Several values for one entry are separate records, joined by “and”; a condition that tells them apart may be missing. Equal entries are not always repeated.

B1: Trastuzumab HCDR3 variant TRNYYDYYYYFDY (Fab, V domains shown)
VH: EVQLVESGGGLVQPGGSLRLSCAASGFNIKDTYIHWVRQAPGKGLEWVARIYPTNGYTRYADSVKGRFTISADTSKNTAYLQMNSLRAEDTAVYYCTRNYYDYYYYFDYWGQGTLVTVSS
VL: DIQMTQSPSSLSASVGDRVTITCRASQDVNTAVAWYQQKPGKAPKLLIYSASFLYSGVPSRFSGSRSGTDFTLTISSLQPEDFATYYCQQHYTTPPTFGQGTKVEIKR
B2: Trastuzumab HCDR3 variant TRYGGYGYYYMDY (Fab, V domains shown)
VH: B1 VH with N99Y, Y100G, Y101G, D102Y, Y103G, F107M
VL: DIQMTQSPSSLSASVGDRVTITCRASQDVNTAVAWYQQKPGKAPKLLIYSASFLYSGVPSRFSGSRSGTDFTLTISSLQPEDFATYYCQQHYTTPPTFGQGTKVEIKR
B3: Trastuzumab HCDR3 variant TSIFSGGYYGLDS (Fab, V domains shown)
VH: B1 VH with R98S, N99I, Y100F, Y101S, D102G, Y103G, Y106G, F107L, Y109S
VL: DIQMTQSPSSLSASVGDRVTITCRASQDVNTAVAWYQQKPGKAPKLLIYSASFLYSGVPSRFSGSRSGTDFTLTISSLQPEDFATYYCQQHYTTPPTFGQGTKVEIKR
B4: Trastuzumab HCDR3 variant TRYGYGGPYWFDY (Fab, V domains shown)
VH: B1 VH with N99Y, Y100G, D102G, Y103G, Y104P, Y106W
VL: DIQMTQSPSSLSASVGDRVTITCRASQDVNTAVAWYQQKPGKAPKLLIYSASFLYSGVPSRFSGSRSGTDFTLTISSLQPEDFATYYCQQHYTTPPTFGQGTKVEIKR
B5: Trastuzumab HCDR3 variant VRYGSDVYYYFDI (Fab, V domains shown)
VH: B1 VH with T97V, N99Y, Y100G, Y101S, Y103V, Y109I
VL: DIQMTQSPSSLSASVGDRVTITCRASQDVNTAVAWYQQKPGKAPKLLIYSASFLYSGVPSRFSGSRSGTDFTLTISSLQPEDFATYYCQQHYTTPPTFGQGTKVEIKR
B6: Trastuzumab HCDR3 variant TRYGSFHYYYFDV (Fab, V domains shown)
VH: B1 VH with N99Y, Y100G, Y101S, D102F, Y103H, Y109V
VL: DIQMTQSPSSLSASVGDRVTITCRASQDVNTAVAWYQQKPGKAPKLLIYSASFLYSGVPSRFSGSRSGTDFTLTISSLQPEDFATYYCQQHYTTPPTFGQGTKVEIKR
B7: Trastuzumab HCDR3 variant VRYGGWGFWYFDY (Fab, V domains shown)
VH: B1 VH with T97V, N99Y, Y100G, Y101G, D102W, Y103G, Y104F, Y105W
VL: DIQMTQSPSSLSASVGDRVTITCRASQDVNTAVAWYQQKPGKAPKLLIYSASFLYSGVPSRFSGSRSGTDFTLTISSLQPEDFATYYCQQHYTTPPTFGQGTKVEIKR
B8: Trastuzumab HCDR3 variant VRWGVGAYYNFDY (Fab, V domains shown)
VH: B1 VH with T97V, N99W, Y100G, Y101V, D102G, Y103A, Y106N
VL: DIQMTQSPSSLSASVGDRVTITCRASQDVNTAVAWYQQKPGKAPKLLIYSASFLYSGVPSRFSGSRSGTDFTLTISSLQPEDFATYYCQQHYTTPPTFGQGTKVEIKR
B9: Trastuzumab HCDR3 variant TRWLEGLSYFMDY (Fab, V domains shown)
VH: B1 VH with N99W, Y100L, Y101E, D102G, Y103L, Y104S, Y106F, F107M
VL: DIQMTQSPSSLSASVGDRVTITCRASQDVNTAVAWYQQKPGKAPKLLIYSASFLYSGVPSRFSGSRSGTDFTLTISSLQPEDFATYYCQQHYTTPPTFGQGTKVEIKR
B10: Trastuzumab HCDR3 variant VRYFYDGNYYFDL (Fab, V domains shown)
VH: B1 VH with T97V, N99Y, Y100F, Y103G, Y104N, Y109L
VL: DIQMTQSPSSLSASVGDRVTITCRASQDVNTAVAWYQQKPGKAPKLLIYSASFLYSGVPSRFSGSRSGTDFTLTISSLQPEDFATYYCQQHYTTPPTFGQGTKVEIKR
B11: Trastuzumab HCDR3 variant VRYGYGDYYYFDY (Fab, V domains shown)
VH: B1 VH with T97V, N99Y, Y100G, D102G, Y103D
VL: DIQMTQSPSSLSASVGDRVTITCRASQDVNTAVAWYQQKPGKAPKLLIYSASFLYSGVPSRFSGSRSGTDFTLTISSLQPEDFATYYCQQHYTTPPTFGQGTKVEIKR
B12: Trastuzumab HCDR3 variant VRYGFYGYYYFDY (Fab, V domains shown)
VH: B1 VH with T97V, N99Y, Y100G, Y101F, D102Y, Y103G
VL: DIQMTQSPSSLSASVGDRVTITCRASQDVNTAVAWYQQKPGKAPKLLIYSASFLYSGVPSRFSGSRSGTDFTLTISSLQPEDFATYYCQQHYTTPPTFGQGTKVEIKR
B13: Trastuzumab HCDR3 variant VRYGFDGSYYFDP (Fab, V domains shown)
VH: B1 VH with T97V, N99Y, Y100G, Y101F, Y103G, Y104S, Y109P
VL: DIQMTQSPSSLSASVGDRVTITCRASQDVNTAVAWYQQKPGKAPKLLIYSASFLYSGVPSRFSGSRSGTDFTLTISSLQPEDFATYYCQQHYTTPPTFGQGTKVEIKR
B14: Trastuzumab HCDR3 variant TRYEYQDYYHFDY (Fab, V domains shown)
VH: B1 VH with N99Y, Y100E, D102Q, Y103D, Y106H
VL: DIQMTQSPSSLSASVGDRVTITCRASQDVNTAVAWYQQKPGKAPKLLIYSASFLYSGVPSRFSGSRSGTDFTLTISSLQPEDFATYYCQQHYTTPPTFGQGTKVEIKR
B15: Trastuzumab HCDR3 variant VRYYGDGGYYFDY (Fab, V domains shown)
VH: B1 VH with T97V, N99Y, Y101G, Y103G, Y104G
VL: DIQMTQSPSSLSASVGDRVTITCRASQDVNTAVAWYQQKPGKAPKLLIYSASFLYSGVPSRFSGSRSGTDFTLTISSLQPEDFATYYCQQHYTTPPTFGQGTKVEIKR
B16: Trastuzumab HCDR3 variant TRYLHDYYYYFDY (Fab, V domains shown)
VH: B1 VH with N99Y, Y100L, Y101H
VL: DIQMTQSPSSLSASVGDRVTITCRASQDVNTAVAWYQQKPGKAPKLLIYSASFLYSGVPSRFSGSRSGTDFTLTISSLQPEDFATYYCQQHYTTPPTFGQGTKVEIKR
B17: Trastuzumab HCDR3 variant TRYRGPYYYYFDP (Fab, V domains shown)
VH: B1 VH with N99Y, Y100R, Y101G, D102P, Y109P
VL: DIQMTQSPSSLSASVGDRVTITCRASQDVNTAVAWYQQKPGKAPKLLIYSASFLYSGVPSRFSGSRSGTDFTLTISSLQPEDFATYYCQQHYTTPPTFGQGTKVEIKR
B18: Trastuzumab HCDR3 variant TRYASGYFYAFDY (Fab, V domains shown)
VH: B1 VH with N99Y, Y100A, Y101S, D102G, Y104F, Y106A
VL: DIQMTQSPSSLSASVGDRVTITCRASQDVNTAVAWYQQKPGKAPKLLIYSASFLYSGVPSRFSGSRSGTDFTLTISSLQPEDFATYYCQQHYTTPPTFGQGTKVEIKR
B19: Trastuzumab HCDR3 variant TRYYYYGSYHFDY (Fab, V domains shown)
VH: B1 VH with N99Y, D102Y, Y103G, Y104S, Y106H
VL: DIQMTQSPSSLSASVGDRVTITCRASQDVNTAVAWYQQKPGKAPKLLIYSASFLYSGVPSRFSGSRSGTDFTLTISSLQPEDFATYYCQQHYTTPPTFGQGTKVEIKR
B20: Trastuzumab HCDR3 variant TRYFFNGWYYFDV (Fab, V domains shown)
VH: B1 VH with N99Y, Y100F, Y101F, D102N, Y103G, Y104W, Y109V
VL: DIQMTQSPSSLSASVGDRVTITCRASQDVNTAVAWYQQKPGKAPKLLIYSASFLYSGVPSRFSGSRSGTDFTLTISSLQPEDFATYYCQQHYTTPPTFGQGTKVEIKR
B21: Trastuzumab HCDR3 variant ARYGGGYNMDY (Fab, V domains shown)
VH: EVQLVESGGGLVQPGGSLRLSCAASGFNIKDTYIHWVRQAPGKGLEWVARIYPTNGYTRYADSVKGRFTISADTSKNTAYLQMNSLRAEDTAVYYCARYGGGYNMDYWGQGTLVTVSS
VL: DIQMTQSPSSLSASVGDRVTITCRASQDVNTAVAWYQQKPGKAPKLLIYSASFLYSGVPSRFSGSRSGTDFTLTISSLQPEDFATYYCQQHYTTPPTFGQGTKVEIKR
B22: Trastuzumab HCDR3 variant VRFYYDYYFDY (Fab, V domains shown)
VH: B21 VH with A97V, Y99F, G100Y, G101Y, G102D, N104Y, M105F
VL: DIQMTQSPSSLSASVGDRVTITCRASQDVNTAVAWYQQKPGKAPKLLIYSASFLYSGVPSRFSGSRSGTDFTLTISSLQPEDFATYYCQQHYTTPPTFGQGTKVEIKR
B23: Trastuzumab HCDR3 variant VRYGNSYYYDY (Fab, V domains shown)
VH: B21 VH with A97V, G101N, G102S, N104Y, M105Y
VL: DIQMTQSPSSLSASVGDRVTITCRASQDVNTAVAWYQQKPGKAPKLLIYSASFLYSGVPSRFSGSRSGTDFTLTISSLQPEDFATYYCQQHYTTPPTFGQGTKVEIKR
B24: Trastuzumab HCDR3 variant APYGPGYWYGV (Fab, V domains shown)
VH: B21 VH with R98P, G101P, N104W, M105Y, D106G, Y107V
VL: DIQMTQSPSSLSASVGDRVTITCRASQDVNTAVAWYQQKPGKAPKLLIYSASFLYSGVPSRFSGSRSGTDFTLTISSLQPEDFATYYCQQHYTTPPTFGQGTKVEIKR
B25: Trastuzumab HCDR3 variant TRWGGYYYFDY (Fab, V domains shown)
VH: B21 VH with A97T, Y99W, G102Y, N104Y, M105F
VL: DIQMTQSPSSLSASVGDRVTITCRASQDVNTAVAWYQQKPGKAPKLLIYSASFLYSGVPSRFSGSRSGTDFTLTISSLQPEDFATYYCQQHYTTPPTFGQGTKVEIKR
B26: Trastuzumab HCDR3 variant ARWYVSYDYDV (Fab, V domains shown)
VH: B21 VH with Y99W, G100Y, G101V, G102S, N104D, M105Y, Y107V
VL: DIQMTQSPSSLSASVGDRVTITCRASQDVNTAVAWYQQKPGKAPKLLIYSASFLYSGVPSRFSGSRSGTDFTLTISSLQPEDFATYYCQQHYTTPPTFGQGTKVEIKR
B27: Trastuzumab HCDR3 variant ARWEDYYYMDY (Fab, V domains shown)
VH: B21 VH with Y99W, G100E, G101D, G102Y, N104Y
VL: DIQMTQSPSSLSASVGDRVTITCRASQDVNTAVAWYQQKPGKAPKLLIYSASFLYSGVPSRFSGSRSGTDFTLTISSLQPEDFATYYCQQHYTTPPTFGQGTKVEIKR
B28: Trastuzumab HCDR3 variant TRYGLTFDMDY (Fab, V domains shown)
VH: B21 VH with A97T, G101L, G102T, Y103F, N104D
VL: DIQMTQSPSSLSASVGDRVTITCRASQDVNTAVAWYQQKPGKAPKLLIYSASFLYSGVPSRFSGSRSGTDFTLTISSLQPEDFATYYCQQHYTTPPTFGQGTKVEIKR
B29: Trastuzumab HCDR3 variant ARYYYGYGGYYFDY (Fab, V domains shown)
VH: EVQLVESGGGLVQPGGSLRLSCAASGFNIKDTYIHWVRQAPGKGLEWVARIYPTNGYTRYADSVKGRFTISADTSKNTAYLQMNSLRAEDTAVYYCARYYYGYGGYYFDYWGQGTLVTVSS
VL: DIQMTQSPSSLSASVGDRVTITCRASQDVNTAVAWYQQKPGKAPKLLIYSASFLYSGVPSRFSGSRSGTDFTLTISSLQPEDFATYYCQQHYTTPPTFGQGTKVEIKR
B30: Trastuzumab HCDR3 variant ARYGYAPGFYYMDV (Fab, V domains shown)
VH: B29 VH with Y100G, G102A, Y103P, G105F, F108M, Y110V
VL: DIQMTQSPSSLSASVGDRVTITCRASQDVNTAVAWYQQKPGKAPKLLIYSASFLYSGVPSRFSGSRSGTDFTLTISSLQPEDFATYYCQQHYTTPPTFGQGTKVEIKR
B31: Trastuzumab HCDR3 variant TRYYDGAGPYYMDY (Fab, V domains shown)
VH: B29 VH with A97T, Y101D, Y103A, G105P, F108M
VL: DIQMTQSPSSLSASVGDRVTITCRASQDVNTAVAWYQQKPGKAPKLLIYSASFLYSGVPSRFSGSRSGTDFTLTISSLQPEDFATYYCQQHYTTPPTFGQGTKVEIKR
B32: Trastuzumab HCDR3 variant ARYYGYYYAFDY (Fab, V domains shown)
VH: EVQLVESGGGLVQPGGSLRLSCAASGFNIKDTYIHWVRQAPGKGLEWVARIYPTNGYTRYADSVKGRFTISADTSKNTAYLQMNSLRAEDTAVYYCARYYGYYYAFDYWGQGTLVTVSS
VL: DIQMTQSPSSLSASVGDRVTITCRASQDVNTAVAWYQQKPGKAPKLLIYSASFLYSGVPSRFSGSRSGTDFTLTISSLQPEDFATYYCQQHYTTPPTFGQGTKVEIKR
B33: Trastuzumab HCDR3 variant AGYWYGSYSFDY (Fab, V domains shown)
VH: B32 VH with R98G, Y100W, G101Y, Y102G, Y103S, A105S
VL: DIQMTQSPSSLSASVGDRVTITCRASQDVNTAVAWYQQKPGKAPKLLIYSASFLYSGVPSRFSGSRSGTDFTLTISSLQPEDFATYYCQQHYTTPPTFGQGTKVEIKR
B34: Trastuzumab HCDR3 variant ARGYFGGYYFAY (Fab, V domains shown)
VH: B32 VH with Y99G, G101F, Y102G, Y103G, A105Y, D107A
VL: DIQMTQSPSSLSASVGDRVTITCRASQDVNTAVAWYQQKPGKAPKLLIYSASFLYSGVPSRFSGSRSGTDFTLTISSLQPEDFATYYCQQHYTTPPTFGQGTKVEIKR
B35: Trastuzumab HCDR3 variant AKYAFGGWSYSP (Fab, V domains shown)
VH: B32 VH with R98K, Y100A, G101F, Y102G, Y103G, Y104W, A105S, F106Y, D107S, Y108P
VL: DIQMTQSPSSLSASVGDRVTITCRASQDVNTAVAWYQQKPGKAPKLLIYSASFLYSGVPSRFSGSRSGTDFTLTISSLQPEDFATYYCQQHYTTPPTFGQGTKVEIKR
B36: Trastuzumab HCDR3 variant AKYGRSDYGFEH (Fab, V domains shown)
VH: B32 VH with R98K, Y100G, G101R, Y102S, Y103D, A105G, D107E, Y108H
VL: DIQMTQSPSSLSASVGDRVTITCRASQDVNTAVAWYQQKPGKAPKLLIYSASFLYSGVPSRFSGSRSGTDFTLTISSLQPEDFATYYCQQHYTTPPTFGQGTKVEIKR
B37: Trastuzumab HCDR3 variant ALLYGYYPSGVG (Fab, V domains shown)
VH: B32 VH with R98L, Y99L, Y104P, A105S, F106G, D107V, Y108G
VL: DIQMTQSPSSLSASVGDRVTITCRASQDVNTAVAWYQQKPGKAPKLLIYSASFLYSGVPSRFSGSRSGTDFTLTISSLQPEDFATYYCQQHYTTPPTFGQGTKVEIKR
B38: Trastuzumab HCDR3 variant ARFLYGSYYFDY (Fab, V domains shown)
VH: B32 VH with Y99F, Y100L, G101Y, Y102G, Y103S, A105Y
VL: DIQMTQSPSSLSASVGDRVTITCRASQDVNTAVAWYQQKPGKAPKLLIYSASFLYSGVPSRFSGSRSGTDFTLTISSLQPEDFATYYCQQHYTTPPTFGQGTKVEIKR
B39: Trastuzumab HCDR3 variant AKYGISDYGFDH (Fab, V domains shown)
VH: B32 VH with R98K, Y100G, G101I, Y102S, Y103D, A105G, Y108H
VL: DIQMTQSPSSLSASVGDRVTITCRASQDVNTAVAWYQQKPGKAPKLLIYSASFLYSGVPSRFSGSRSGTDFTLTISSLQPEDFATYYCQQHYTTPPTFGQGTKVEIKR
B40: Trastuzumab HCDR3 variant AAYGPQGYAFAV (Fab, V domains shown)
VH: B32 VH with R98A, Y100G, G101P, Y102Q, Y103G, D107A, Y108V
VL: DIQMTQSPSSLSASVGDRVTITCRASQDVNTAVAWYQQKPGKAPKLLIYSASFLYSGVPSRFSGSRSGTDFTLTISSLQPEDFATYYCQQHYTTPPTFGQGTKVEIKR
B41: Trastuzumab HCDR3 variant AANAAIFAAWGA (Fab, V domains shown)
VH: B32 VH with R98A, Y99N, Y100A, G101A, Y102I, Y103F, Y104A, F106W, D107G, Y108A
VL: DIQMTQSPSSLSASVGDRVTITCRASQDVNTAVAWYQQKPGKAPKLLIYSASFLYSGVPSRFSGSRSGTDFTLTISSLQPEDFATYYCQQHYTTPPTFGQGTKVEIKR
B42: Trastuzumab HCDR3 variant AQSGSYFYPFSY (Fab, V domains shown)
VH: B32 VH with R98Q, Y99S, Y100G, G101S, Y103F, A105P, D107S
VL: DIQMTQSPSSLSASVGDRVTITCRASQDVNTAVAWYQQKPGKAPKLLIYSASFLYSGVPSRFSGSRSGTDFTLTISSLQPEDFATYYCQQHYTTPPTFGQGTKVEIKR
B43: Trastuzumab HCDR3 variant ARGYWWLYGFAY (Fab, V domains shown)
VH: B32 VH with Y99G, G101W, Y102W, Y103L, A105G, D107A
VL: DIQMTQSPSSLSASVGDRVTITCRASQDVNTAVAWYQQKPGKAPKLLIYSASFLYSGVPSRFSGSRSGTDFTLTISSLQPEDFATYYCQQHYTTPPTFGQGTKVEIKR
B44: Trastuzumab HCDR3 variant ALYKRYDYAFGY (Fab, V domains shown)
VH: B32 VH with R98L, Y100K, G101R, Y103D, D107G
VL: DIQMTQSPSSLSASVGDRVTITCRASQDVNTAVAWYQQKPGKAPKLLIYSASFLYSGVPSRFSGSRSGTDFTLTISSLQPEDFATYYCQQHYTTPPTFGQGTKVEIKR
B45: Trastuzumab HCDR3 variant AKYGTSNYGFSH (Fab, V domains shown)
VH: B32 VH with R98K, Y100G, G101T, Y102S, Y103N, A105G, D107S, Y108H
VL: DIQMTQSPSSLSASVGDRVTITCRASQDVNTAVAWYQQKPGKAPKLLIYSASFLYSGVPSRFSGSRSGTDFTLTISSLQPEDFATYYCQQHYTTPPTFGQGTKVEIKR
B46: Trastuzumab HCDR3 variant ARASWNWYGGDY (Fab, V domains shown)
VH: B32 VH with Y99A, Y100S, G101W, Y102N, Y103W, A105G, F106G
VL: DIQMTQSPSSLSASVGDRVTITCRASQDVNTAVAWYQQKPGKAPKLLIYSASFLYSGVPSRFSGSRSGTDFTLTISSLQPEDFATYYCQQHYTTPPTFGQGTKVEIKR
B47: Trastuzumab HCDR3 variant ARFPVSSYAYGF (Fab, V domains shown)
VH: B32 VH with Y99F, Y100P, G101V, Y102S, Y103S, F106Y, D107G, Y108F
VL: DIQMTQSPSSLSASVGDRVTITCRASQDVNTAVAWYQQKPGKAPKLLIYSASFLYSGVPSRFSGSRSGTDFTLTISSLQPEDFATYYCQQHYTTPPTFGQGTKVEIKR
B48: Trastuzumab HCDR3 variant AASADFMYGVIR (Fab, V domains shown)
VH: B32 VH with R98A, Y99S, Y100A, G101D, Y102F, Y103M, A105G, F106V, D107I, Y108R
VL: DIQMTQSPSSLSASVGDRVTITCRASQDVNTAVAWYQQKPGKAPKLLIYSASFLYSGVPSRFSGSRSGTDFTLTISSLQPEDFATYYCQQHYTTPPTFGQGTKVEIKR
B49: Trastuzumab HCDR3 variant ARASWYWYGGDK (Fab, V domains shown)
VH: B32 VH with Y99A, Y100S, G101W, Y103W, A105G, F106G, Y108K
VL: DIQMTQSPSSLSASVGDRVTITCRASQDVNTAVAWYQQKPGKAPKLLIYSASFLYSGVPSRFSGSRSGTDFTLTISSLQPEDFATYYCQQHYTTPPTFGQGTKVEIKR
B50: Trastuzumab HCDR3 variant AAYWYGVYVFRY (Fab, V domains shown)
VH: B32 VH with R98A, Y100W, G101Y, Y102G, Y103V, A105V, D107R
VL: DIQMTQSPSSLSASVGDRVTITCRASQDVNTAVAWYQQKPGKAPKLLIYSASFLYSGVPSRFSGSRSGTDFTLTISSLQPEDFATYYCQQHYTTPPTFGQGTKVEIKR

What follows are binders tested against T1, HER2 (human epidermal growth factor receptor 2) (human, UniProt P04626 23-629) (assay: SPR).
T1 construct: also called Antigen: HER2

Binder | Kd | log(KD (M))
B1 | 7.54 nM | -8.12
B2 | 12 nM | -7.92
B3 | 8.57 nM | -8.07
B4 | 14.3 nM | -7.84
B5 | 19.9 nM | -7.7
B6 | 8.73 nM | -8.06
B7 | 6.76 nM | -8.17
B8 | 12.1 nM | -7.92
B9 | 2.4 nM | -8.62
B10 | 22.9 nM | -7.64
B11 | 25.1 nM | -7.6
B12 | 16.5 nM | -7.78
B13 | 13.2 nM | -7.88
B14 | 18.5 nM | -7.73
B15 | 5.35 nM | -8.27
B16 | 22.7 nM | -7.64

Binder | Kd | log(KD (M))
B17 | 12.1 nM | -7.92
B18 | 9.14 nM | -8.04
B19 | 6.82 nM | -8.17
B20 | 0.94 nM | -9.03
B21 | 14.3 nM | -7.84
B22 | 26.9 nM | -7.57
B23 | 26.9 nM | -7.57
B24 | 9.15 nM | -8.04
B25 | 9.79 nM | -8.01
B26 | 17.6 nM | -7.75
B27 | 21.8 nM | -7.66
B28 | 13.9 nM | -7.86
B29 | 15 nM | -7.82
B30 | 9.72 nM | -8.01
B31 | 23.7 nM and 23.6 nM | -7.63

These binders were tested against human epidermal growth factor receptor 2 (HER2) extracellular domain (human, UniProt P04626 23-629) (assay: SPR).

Binder | Kd | log(KD (M))
B32 | 46.3 nM | -7.33 log(M)
B33 | 35.4 nM | -7.45 log(M)
B34 | 130 nM | -6.88 log(M)
B35 | 37.7 nM | -7.42 log(M)
B36 | 133 nM | -6.88 log(M)
B37 | 262 nM | -6.58 log(M)
B38 | 135 nM | -6.87 log(M)
B39 | 207 nM | -6.68 log(M)
B40 | 33.8 nM | -7.47 log(M)
B41 | 43.1 nM | -7.37 log(M)
B42 | 83.2 nM | -7.08 log(M)
B43 | 172 nM | -6.77 log(M)
B44 | 86.6 nM | -7.06 log(M)
B45 | 27.6 nM | -7.56 log(M)
B46 | 92.9 nM | -7.03 log(M)
B47 | 36.2 nM | -7.44 log(M)
B48 | 39.6 nM | -7.4 log(M)
B49 | 37.8 nM | -7.42 log(M)
B50 | 113 nM | -6.95 log(M)
